In IntAct's records for PubMed 26356530:

B1: Histone deacetylase 3 (Homo sapiens), O15379 (parent)
chain: MAKTVAYFYDPDVGNFHYGAGHPMKPHRLALTHSLVLHYGLYKKMIVFKPYQASQHDMCRFHSEDYIDFLQRVSPTNMQGFTKSLNAFNVGDDCPVFPGLFEFCSRYTGASLQGATQLNNKICDIAINWAGGLHHAKKFEASGFCYVNDIVIGILELLKYHPRVLYIDIDIHHGDGVQEAFYLTDRVMTVSFHKYGNYFFPGTGDMYEVGAESGRYYCLNVPLRDGIDDQSYKHLFQPVINQVVDFYQPTCIVLQCGADSLGCDRLGCFNLSIRGHGECVEYVKSFNIPLLVLGGGGYTVRNVARCWTYETSLLVEEAISEELPYSEYFEYFAPDFTLHPDVSTRIENQNSRQYLDQIRQTIFENLKMLNHAPSVQIHDVPADLLTYDRTDEADAEERGPEENYSRPEAPNEFYDGDHDNDKESDVEI
partner: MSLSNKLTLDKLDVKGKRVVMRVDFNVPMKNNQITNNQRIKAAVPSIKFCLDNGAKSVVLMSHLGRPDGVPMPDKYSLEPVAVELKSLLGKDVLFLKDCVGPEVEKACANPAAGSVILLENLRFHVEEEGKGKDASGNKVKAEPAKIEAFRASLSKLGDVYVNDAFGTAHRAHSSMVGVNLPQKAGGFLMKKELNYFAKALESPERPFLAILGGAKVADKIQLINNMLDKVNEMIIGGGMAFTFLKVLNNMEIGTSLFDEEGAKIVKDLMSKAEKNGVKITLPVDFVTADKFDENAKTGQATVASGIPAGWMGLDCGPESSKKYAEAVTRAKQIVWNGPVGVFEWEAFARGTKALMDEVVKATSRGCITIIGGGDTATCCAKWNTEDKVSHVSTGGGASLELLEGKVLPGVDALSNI

Variants of: B1
Details: with pgk1_human PGK1, P00558

Variant	effect of a mutation on the interaction
S424A	decreasing interaction strength

Variants of: B1
Details: with PGK1, P00558-1

Variant	effect of a mutation on the interaction
S424A	decreasing interaction strength
